Like-named read-outs stand apart in the source and are kept apart here.
What was measured:
LNCaP cells = test: In vitro pharmacodynamics, LNCaP proliferation assay; assay type: cell-based, human; details: 6-day exposure in tissue culture
Protocol: At the end of that period the drug containing media was removed and replaced with drug free media until a total of 144 hours elapsed from the start of the experiment. The resulting effect of drug exposure on proliferation was then determined.

LNCaP = test: Binding to LNCaP by FACS; design: species or system human
CD-1 mice = tested on: CD-1 mice
From the text: Use of both mice and cynomolgus monkeys for nonclinical testing allowed comparison of exposure and toxicity across species on the basis of body surface area (mg/m^2), and thus aided in selecting the SSD for the proposed Phase 1 clinical trial.

[1] = tested on: metastatic androgen-independent prostate cancer; test: Phase 1 dose-escalating trial of DM1 conjugated deJ591; assay type: in vivo, human
Protocol: Based upon emerging clinical safety and PK, repeat dosing at four week intervals was subsequently permitted.
DLT is defined as the occurrence of one or more of the following:
• Grade 4 thrombocytopenia (platelet count <10,000/mm3) • Requirement for platelet transfusion and/or other methods to increase platelet count • Febrile neutropenia (ANC <1000/mm^3 concurrent with a temperature >38.5° C.). (Per the Infection/Febrile Neutropenia subsection of the NCI CTC version 2.0, febrile neutropenia is, by definition, a >Grade 3 toxicity) • Grade 4 neutropenia without fever of >7 days duration • Grade 3 neutropenia requiring granulocyte colony-stimulating factor (G-CSF) administration • Grade 4 anemia (hemoglobin <6.5 g/dL) • Grade 3 anemia (hemoglobin 6.5-<8.0 g/dL) in a subject receiving EpogenÒNon-hematologic • Any Grade 3 non-hematologic toxicity considered by the investigator to be possibly related to study drug MTD is defined as the highest dose level with an observed incidence of DLT in no more than 1 out of 6 subjects.
There will be a 4 week (28 days±2 days) interval between dose administrations. […] Subjects will receive the same dose administered on day 1 (Visit 1) of their first infusion.
The starting dose is 18 mg/m2. Subjects will be followed for 3 weeks after the first dose to determine dose escalation. Dose escalation will continue until DLT and MTD are determined. Two phases of dose escalation will be used. In the first phase, one subject will be enrolled at each dose level. In the second phase, three subjects will be enrolled at each dose level. The planned dose increments are 80%, 60%, 40%, 30%, 30%, 30%, 30%, 30% and 30% above the previous dose, with a total of ten dose levels planned. All dose increments will be adjusted to 30% above the previous dose if DLT or two or more occurrences of non dose-limiting grade 2 or greater drug-related toxicity (NDLT) are observed in subjects treated at any of the first three dose levels. Non dose-limiting grade 2 or greater toxicity includes grade 2 or 3 hematologic toxicity and grade 2 non-hematologic toxicity. Drug-related toxicity is toxicity considered by the investigator to be related to study drug. In the first phase, one subject will be enrolled at the lowest dose level and observed for 3 weeks to ensure that there are no significant adverse events. If no DLT or NDLT is observed during the 3 week observation period, dose escalation will continue and a new subject will be enrolled at the next predefined dose level. Single subjects will continue to be enrolled and observed at sequentially increasing dose levels until one subject experiences a DLT or a NDLT. If DLT is observed in a single subject at any dose level in the first phase, the second phase will begin, where 3 subjects per dose level will be enrolled. The dose assignment for the first subject enrolled in the second phase will be one dose level lower than the dose level at which DLT is observed. If NDLT is observed in the subject treated at any of the first three dose levels, dose escalation will stop and two more subjects will be enrolled at the current dose level. Subsequent dose escalation and enrollment will be determined by the number and grade of toxicities observed in these two additional subjects. If DLT or NDLT is not observed, the first phase will continue. Dose escalation will proceed to the next predefined dose level, with one subject enrolled at that dose level. If DLT is observed in one subject, three subjects will be enrolled at the current dose level and the second phase will begin. The dose increments for subsequent dose escalations will be 30% for the remainder of the study. If DLT is observed in both subjects, dose escalation will stop and three subjects will be enrolled at the previous dose level, marking the beginning of the second phase. The previous dose level will be evaluated as potential MTD. No further dose escalation will occur. […]

[2] = male mice; for AUC, analyte Total deJ591 / AUC, analyte deJ591-DM1: 0-336 hours
PSMA-negative cells = details: read-out: Non-specific in vitro cytotoxicity towards PSMA-negative cells, IC50
[3] = tested on: micronucleated polychromatic erythrocytes; test: Mouse micronucleus test; details: in vivo
[4] = MLN2704 300 mg/m^2 (100 mg/kg), single IV, CD-1 mice
[5] = single IV deJ591-DM1 10 mg/kg (30 mg/m^2)
[6] = single IV deJ591-DM1 30 mg/kg (90 mg/m^2)
[7] = single IV deJ591-DM1 90 mg/kg (270 mg/m^2)

**Q.** With “deJ591-DM1: deJ591 conjugated via SPP disulfide linker to the maytansinoid DM1, DM1/antibody ratio about 3.5” as the substance, how does the “IC50 on PSMA-positive LNCaP cells” value (LNCaP cells) read?
**A.** Its value is 0.21 µg/mL.

**Q.** And the EC50 (LNCaP; listed as 1552-60S)?
**A.** Its EC50 is 7.9 nM.

**Q.** And the EC50 (LNCaP; listed as N067020302)?
**A.** Its EC50 is 6.9 nM.

**Q.** And the “Degree of Toxicity and Major Target Organs” value (shortened to “Degree”) (CD-1 mice; 30 mg/m^2 (10 mg/kg))?
**A.** The value was “Mild toxicity to testes”.

**Q.** What about the “Degree” value (CD-1 mice; 48 mg/m^2 (16 mg/kg)) of the same substance?
**A.** The value was “Mild to moderate toxicity to reproductive”.

**Q.** What about the “Degree” value (CD-1 mice; 90 mg/m^2 (30 mg/kg)) of the same substance?
**A.** Its value is “Mild to moderate toxicity to reproductive,”.

**Q.** And the “Degree” value (CD-1 mice; 300 mg/m^2 (100 mg/kg))?
**A.** The value was “Moderate to severe toxicity to reproductive,”.

**Q.** What about the mortality (CD-1 mice; 480 mg/m^2 (160 mg/kg)) of the same substance?
**A.** Its mortality is 100% mortality attributed to severe.

**Q.** What about the “Degree” value (CD-1 mice; MLN2704 30 mg/m^2 (10 mg/kg), single IV, CD-1 mice) of the same substance?
**A.** The value was “Mild toxicity to testes”.

**Q.** What about the “Degree” value (CD-1 mice; MLN2704 48 mg/m^2 (16 mg/kg), single IV, CD-1 mice) of the same substance?
**A.** Its value is “Mild to moderate toxicity to”.

**Q.** What about the “elevated AST and ALT values” (CD-1 mice; MLN2704 90 mg/m^2 (30 mg/kg), single IV, CD-1 mice) of the same substance?
**A.** The value was “mitosis/necrosis of liver; slightly”.

**Q.** What about the “elevated AST and ALT values” (CD-1 mice; MLN2704 180 mg/m^2 (60 mg/kg), single IV, CD-1 mice) of the same substance?
**A.** Its value is “mitosis/necrosis of liver; moderately”.

**Q.** And the “elevated AST and ALT values” (CD-1 mice; [4])?
**A.** Its value is “mitosis/necrosis of liver; markedly”.

**Q.** What about the mortality (CD-1 mice; [4]) of the same substance?
**A.** Its mortality is 30% mortality attributed to severe.

**Q.** What about the “Degree” value (CD-1 mice; MLN2704 300 mg/m^2 (100 mg/kg), single IV, CD-1 mice, survivors) of the same substance?
**A.** The value was “toxicity. Moderate to severe toxicity to”.

**Q.** What about the mortality (CD-1 mice; MLN2704 480 mg/m^2 (160 mg/kg), single IV, CD-1 mice) of the same substance?
**A.** Its mortality is 100% mortality attributed to severe.

**Q.** What about the “Mouse LD10 (female)” value (CD-1 mice; calculated) of the same substance?
**A.** The value was 95 mg/kg.

**Q.** What about the “Mouse LD10 (female), DM1-Equivalents received” value (CD-1 mice; calculated) of the same substance?
**A.** The value was 5.13 mg/m^2.

**Q.** What about the “Mouse LD10 (male)” value (CD-1 mice; calculated) of the same substance?
**A.** The value was 96 mg/kg.

**Q.** What about the “Mouse LD10 (male), DM1-Equivalents received” value (CD-1 mice; calculated) of the same substance?
**A.** The value was 5.18 mg/m^2.

**Q.** And the lower testes weights (CD-1 mice; lowest tested dosage 30 mg/m^2)?
**A.** Its lower testes weights is 10%.

**Q.** What about the “Mouse LD100” value (CD-1 mice; mouse, in vivo) of the same substance?
**A.** The value was 160 mg/kg.

**Q.** What about the “Mouse MTD” value (CD-1 mice; mouse, in vivo) of the same substance?
**A.** The value was 60 mg/kg.

**Q.** And the “Mouse STD, DM1-Equivalents received” value (CD-1 mice; mouse, in vivo)?
**A.** Its value is 5.40 mg/m^2.

**Q.** And the LD100 (CD-1 mice; single IV, CD-1 mice)?
**A.** The LD100 was 160 mg/kg.

**Q.** And the MTD (CD-1 mice; single IV, CD-1 mice)?
**A.** Its MTD is 60 mg/kg.

**Q.** And the “LD10 (females)” value (CD-1 mice; single IV, CD-1 mice, females, calculated)?
**A.** The value was 95 mg/kg.

**Q.** What about the “LD10 (males)” value (CD-1 mice; single IV, CD-1 mice, males, calculated) of the same substance?
**A.** The value was 96 mg/kg.

**Q.** What about the tolerability ([1]; 18 to 343 mg/m^2) of the same substance?
**A.** Its tolerability is “well-tolerated in the majority of patients”.

**Q.** And the MTD ([1]; 23 patients, 18 to 343 mg/m^2)?
**A.** The MTD was at least 343 mg/m^2.

**Q.** And the DLT ([1]; highest dose level 343 mg/m^2)?
**A.** Its DLT is “Only one DLT, an uncomplicated febrile neutropenia”.

**Q.** And the “PK of antibody related analytes (J591-DM1, Total J591 and free J591)” value ([1]; in vivo)?
**A.** Its value is “typical of monoclonal antibodies”.

**Q.** And the “Plasma levels of DM1-SH” value ([1]; in vivo)?
**A.** The value was “detectable”.

**Q.** And the anti-antibodies ([1]; in vivo)?
**A.** The anti-antibodies was “No anti-antibodies against DM1 conjugated deJ591, deJ591 or DM1 were detected”.

**Q.** What about the disease response ([1]; one patient, 264 mg/m^2) of the same substance?
**A.** Its disease response is “PR by RECIST criteria”.

**Q.** What about the “durable decrease in PSA” value ([1]; one patient, 264 mg/m^2) of the same substance?
**A.** The value was 70%.

**Q.** What about the “sustained PSA decline” value ([1]; one patient, 343 mg/m^2) of the same substance?
**A.** Its value is over 50%.

**Q.** And the “Tmax, analyte Total deJ591” value [2, 5]?
**A.** The value was 30 min.

**Q.** And the “Tmax, analyte deJ591-DM1” value [2, 5]?
**A.** Its value is 30 min.

**Q.** And the “AUC, analyte Total deJ591” value [2, 5]?
**A.** Its value is 8920 µg·h/mL.

**Q.** What about the “AUC, analyte deJ591-DM1” value [2, 5] of the same substance?
**A.** The value was 3260 µg·h/mL.

**Q.** And the “Tmax, analyte Total deJ591” value [2, 6]?
**A.** Its value is 4.8 min.

**Q.** What about the “Tmax, analyte deJ591-DM1” value [2, 6] of the same substance?
**A.** The value was 4.8 min.

**Q.** And the “AUC, analyte Total deJ591” value [2, 6]?
**A.** The value was 21000 µg·h/mL.

**Q.** What about the “AUC, analyte deJ591-DM1” value [2, 6] of the same substance?
**A.** The value was 5960 µg·h/mL.

**Q.** What about the “Tmax, analyte Total deJ591” value [2, 7] of the same substance?
**A.** The value was 4.8 min.

**Q.** And the “Tmax, analyte deJ591-DM1” value [2, 7]?
**A.** The value was 4.8 min.

**Q.** What about the “AUC, analyte Total deJ591” value [2, 7] of the same substance?
**A.** The value was 62300 µg·h/mL.

**Q.** What about the “AUC, analyte deJ591-DM1” value [2, 7] of the same substance?
**A.** The value was 30600 µg·h/mL.

**Q.** What about the IC50 (PSMA-negative cells; listed as 1552-60S) of the same substance?
**A.** Its IC50 is 13.6 nM.

**Q.** What about the IC50 (PSMA-negative cells; listed as N067020302) of the same substance?
**A.** The IC50 was 17.1 nM.

**Q.** And the “Lowest genotoxic dosage in ICR mice, DM1-Equivalents received” value [3]?
**A.** Its value is 0.54 mg/m^2.
